US20090297524A1 (DOMANTIS, published 2009)
Positions count from the first letter of the chain named.

T1: Recombinant human CD40L (human, UniProt P29965 108-261, limits assumed)
T1 construct: also called CD40 ligand
T1 sequence (looked up): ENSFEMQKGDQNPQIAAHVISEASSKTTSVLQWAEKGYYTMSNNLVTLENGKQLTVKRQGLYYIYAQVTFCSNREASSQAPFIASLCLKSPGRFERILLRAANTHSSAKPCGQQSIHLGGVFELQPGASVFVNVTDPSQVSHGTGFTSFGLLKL

B1: DOM-10 (other)
VH: EVQLLESGGGLVQPGGSLRLSCAASGFTFIAYDMSWVRQAPGKGLEWVSWIDEWGLQTYYADSVKGRFTISRDNSKNTLYLQMNSLRAEDTAVYYCAKKTPEEFDYWGQGTLVTVSS
notes: VH dAb
B2: DOM-8 (other)
VL: DIQMTQSPSSLSASVGDRVTITCRASQFIDTSLEWYQQKPGKAPKLLIYDGSHLQSGVPSRFSGSGSGTDFTLTISSLQPEDLATYYCQQYWVLPLTFGQGTKVEIKR
notes: Vk dAb
B3: DOM-77 (other)
VH: EVQLLESGGGLVQPGGSLRLSCAASGFTFEEYGMAWVRQAPGKGLEWVSTISPLGISTYYADSVKGRFTISRDNSKNTLYLQMNSLRAEDTAVYYCAKHATSQESLRSFDYWGQGTLVTVSS
notes: VH dAb
B4: DOM-2 (other)
VH: EVQLLESGGGLVQPGGSLRLSCAASGFTFSDYEMMWVRQAPGKGLEWVSTITSDGISTYYADSVKGRFTIFRDNSKNTLYLQMNSLRAEDTAVYYCAKSGRFFDYWGQGTLVTVSS
notes: VH dAb
B5: DOM-30 (other)
VH: EVQLLESGGGLVQPGGSLRLSCAASGFTFARYQMAWVRQAPGKGLEWVSTISDDGDSTYYADSVKGRFTISRDNSKNTLYLQMNSLRAEDTAVYYCAKLDKLFDYWGQGTLVTVSS
notes: VH dAb
B6: DOM-27 (other)
VH: B4 VH with S30N, D31L, M35T, T50S, I56V, F71S, S99P, G100D, R101S, F102P
notes: VH dAb
B7: DOM-5 (other)
VH: B4 VH with S30D, D31G, M35A, T50S, I56T, F71S, S99P, R101L, F102R
notes: VH dAb
B8: DOM-7 (other)
VH: B4 VH with S30N, D31L, M35T, T50S, I56V, F71S, S99A, R101V, F102I
notes: VH dAb
B9: DOM-4 (other)
VH: B4 VH with S30D, D31N, M35T, T50S, I56T, F71S, S99P, G100N, R101P, F102P
notes: VH dAb
B10: DOM-24 (other)
VH: B5 VH with A30S, R31N, T50S, S52T, D53S, D54E, D56G, L99P, D100G, L102N
notes: VH dAb; also called DOM8-24; monomeric DOM-24
B11: DOM-20 (other)
VH: B5 VH with A30S, R31G, T50G, D53S, D54E, D56L, S57T, D100G, K101R, L102R
notes: VH dAb
B12: DOM-31 (other)
VH: B5 VH with A30E, R31E, D56S, L99P, K101L, L102Y
notes: VH dAb
B13: 40K PEG2-MAL PEGylated DOM8-24cys (other)
VH: ASTEVQLLESGGGLVQPGGSLRLSCAASGFTFSNYQMAWVRQAPGKGLEWVSSITSEGGSTYYADSVKGRFTISRDNSKNTLYLQMNSLRAEDTAVYYCAKPGKNFDYWGQGTLVTVSC
modifications: 40K PEG2-MAL on the engineered C-terminal cysteine
notes: PEGylated monomer; also called 40K PEG DOM8-24cys
B14: DOM8-24cys (other)
VH: B13 VH
notes: VH dAb DOM8-24 with an engineered C-terminal cysteine (last Ser replaced by Cys); also called unmodified protein
B15: 30K PEG-MAL PEGylated DOM8-24cys (other)
VH: B13 VH
modifications: 30K PEG-MAL on the engineered C-terminal cysteine
notes: PEGylated monomer; also called 30K PEG DOM8-24cys
B16: DOM-85 (other)
VH: EVQLLESGGGLVQPGGSLRLSCAASGFTFEQYDMRWVRQAPGKGLEWVSWIDEAGHETYYADSVKGRFTISRDNSRNTLYLQMNSLRAEDTAVYYCAKGMDGFDYWGQGTLVTVSS
notes: VH dAb
B17: DOM.88 (other)
VL: DIQMTQSPSSLSASVGDRVTITCRASQEIVEDLYWYQQKPGKAAKLLIYGASWLQSGVPSRFSGSGSGTDFTLTISSLQPEDFATYYCQQTRRRPYTFGQGTKVEIKR
notes: Vk dAb
B18: DOM-87 (other)
VL: DIQMTQSPSSLSASVGDRVTITCRASQDIDESLMWYQQKPGKAPRLLIYGVSYLQSGVPSRFSGSGSGTDFTLTISSLQPEDFATYYCQQRWKAPFTFGQGTKVEIKR
notes: Vk dAb

target: T1, Recombinant human CD40L; assay: CD40L receptor binding assay: dAb inhibits CD40L (3 ng/ml) binding to coated CD40/Fc
Procedure: A 96 well Nunc Maxisorp assay plate was coated overnight at 4° C. with 100 μl per well of recombinant human CD40/Fc (R&D Systems) at 0.5 μg/ml in carbonate buffer. The plate was washed 3 times with 300 μl of 0.05% Tween/PBS and 3 times with 300 μl of PBS using a Tecan plate washer. The wells were blocked using 200 μl of PBS containing 2% (w/v) BSA and incubated for a minimum of 1 h at room temperature. The wells were washed as above, then 50 μl of purified dAb protein (or unpurified supernatant containing dAb from a micro-culture expression) was added to each well.
The plate was washed as described above, then 100 μl HRP conjugated anti-biotin antibody (1:5000 dilution in diluent) added to each well and the plate incubated for 1 hr at room temperature. The plate was washed again as described above using a Tecan plate washer and the assay developed using 100 μl of SureBlue 1-Component TMB MicroWell Peroxidase solution (the plate was left at room temperature for up to 20 min). The reaction was stopped by the addition of 100 μl M hydrochloric acid. The OD₄₅₀ₙₘ of the plate was assayed within 30 minutes of acid addition. The OD₄₅₀ₙₘ is proportional to the amount of bound streptavidin-HRP conjugate, therefore the greater the degree of dAb inhibition the lower the OD₄₅₀ₙₘ of the resulting signal.

IC50 | Binder
50 nM | B1
900 nM | B2
40 nM | B3
800 nM | B4
8 nM | B5
~100 nM | B6
3 nM | B7
1500 nM | B8
100 nM | B9
0.417 nM | B10
8 nM | B11
8 nM | B12

target: T1, Recombinant human CD40L; assay: CD40L receptor binding assay: inhibition of CD40L (3 ng/ml) binding to coated CD40/Fc; 40K PEG
Procedure: (§1) A 96 well Nunc Maxisorp assay plate was coated overnight at 4° C. with 100 μl per well of recombinant human CD40/Fc (R&D Systems) at 0.5 μg/ml in carbonate buffer. The plate was washed 3 times with 300 μl of 0.05% Tween/PBS and 3 times with 300 μl of PBS using a Tecan plate washer. The wells were blocked using 200 μl of PBS containing 2% (w/v) BSA and incubated for a minimum of 1 h at room temperature. The wells were washed as above, then 50 μl of purified dAb protein was added to each well. […] The plate was washed as described above, then 100 μl HRP conjugated anti-biotin antibody (1:5000 dilution in diluent) added to each well and the plate incubated for 1 hr at room temperature. The plate was washed again as described above using a Tecan plate washer and the assay developed using 100 μl of SureBlue 1-Component TMB MicroWell Peroxidase solution (the plate was left at room temperature for up to 20 min). The reaction was stopped by the addition of 100 μl M hydrochloric acid. The OD₄₅₀ₙₘ of the plate was assayed within 30 minutes of acid addition. The OD₄₅₀ₙₘ is proportional to the amount of bound streptavidin-HRP conjugate, therefore the greater the degree of dAb inhibition the lower the OD₄₅₀ₙₘ of the resulting signal.

IC50 | Binder
~1 nM | B13

target: T1, Recombinant human CD40L; assay: CD40L receptor binding assay (RBA, ELISA): dAb titrated against 3 ng/ml CD40L binding to plate-coated CD40/Fc
Procedure: as §1

IC50 (read off the curve) | Binder
~0.6 nM | B14
~1 nM | B13
~0.5 nM | B15

target: T1, Recombinant human CD40L; assay: CD40L/CD40-Fc receptor binding assay;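 also: plate assay with coated human CD40-Fc, bound ligand detected via HRP anti-biotin antibody and TMB, OD at 450 nm, lower signal indicates stronger inhibition by dAb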

binding result | Binder
binds | B16
binds | B17
binds | B18

target: T1, Recombinant human CD40L; assay: CD40L receptor binding assay: inhibition of CD40L (3 ng/ml) binding to coated CD40/Fc; 30K PEG
Procedure: as §1

IC50 | Binder
~1 nM | B15
